Test results from patent US20240200091A1, “USE OF PROTOPORPHYRINOGEN OXIDASE” (BEIJING DABEINONG BIOTECHNOLOGY CO., LTD., priority 2021, published 2024).

Experiments:
Format in all cases: in vivo
Details in all cases: 7 DAT, number of plants of 24 per genotype, grades
[1] = system: Arabidopsis thaliana T1 plants; assay: oxyfluorfen tolerance of transgenic Arabidopsis thaliana T1 plants (spray, grade of pesticide damage)
Description: (§1) The transformed Arabidopsis thaliana T1 plants were initially selected using glufosinate herbicide. The Arabidopsis thaliana T1 plants (PPO1A) into which the PPO1A nucleotide sequence was introduced, the Arabidopsis thaliana T1 plants (PPO2A) into which the PPO2A nucleotide sequence was introduced, the Arabidopsis thaliana T1 plants (PPO3A) into which the PPO3A nucleotide sequence was introduced, the Arabidopsis thaliana T1 plants (PPO4A) into which the PPO4A nucleotide sequence was introduced, the Arabidopsis thaliana T1 plants (PPO5A) into which the PPO5A nucleotide sequence was introduced, the Arabidopsis thaliana T1 plants (PPO6A) into which the PPO6A nucleotide sequence was introduced, the Arabidopsis thaliana T1 plants (PPO7A) into which the PPO7A nucleotide sequence was introduced, the Arabidopsis thaliana T1 plants (PPO8A) into which the PPO8A nucleotide sequence was introduced, the Arabidopsis thaliana T1 plants (PPO9A) into which the PPO9A nucleotide sequence was introduced, the Arabidopsis thaliana T1 plants (PPO10A) into which the […] nucleotide sequence was introduced, the Arabidopsis thaliana T1 plants (PPO11A) into which the PPO11A nucleotide sequence was introduced, the Arabidopsis thaliana T1 plants (PPO12A) into which the PPO12A nucleotide sequence was introduced, the Arabidopsis thaliana T1 plants (PPO13A) into which the PPO13A nucleotide sequence was introduced, the Arabidopsis thaliana T1 plants (PPO14A) into which the PPO14A nucleotide sequence was introduced, the Arabidopsis thaliana T1 plants (PPO-ATA) into which the PPO-ATA nucleotide sequence was introduced, the Arabidopsis thaliana T1 plants (PPO-APA) into which the PPO-APA nucleotide sequence was introduced, the Arabidopsis thaliana T1 plants (control vector) into which the control vector was introduced, and the wild-type Arabidopsis thaliana plants (CK) (with 24 plants being included in each genotype) (18 days after sowing) were sprayed with oxyfluorfen at three concentrations (180 g ai/ha (one-fold field concentration, 1×), 720 g ai/ha (four-fold field concentration, 4×), and 0 g ai/ha (water, 0×)), saflufenacil at three concentrations (25 g ai/ha (one-fold field concentration, 1×), 100 g ai/ha (four-fold field concentration, 4×), and 0 g ai/ha (water, 0×)), flumioxazin at three concentrations (60 g ai/ha (one-fold field concentration, 1×), 240 g ai/ha (four-fold field concentration, 4×), and 0 g ai/ha (water, 0×), and sulfentrazone at three concentrations (450 g ai/ha (one-fold field concentration, 1×), 900 g ai/ha (two-fold field concentration, 2×), and 0 g ai/ha (water, 0×) to determine the tolerance of Arabidopsis thaliana to the herbicides. After 7 days of spraying (7 DAT), the damage level of each plant caused by the herbicide was evaluated according to the average of the damage levels (%) of plants (the average of the damage levels (%) of plants=the injured leaf area/the total leaf area×[…]), i.e., the grade of pesticide damage: grade 0 means that the growth status of plants is essentially consistent with those sprayed with the blank solvent (water); grade 1 means that the average of the damage levels of plants is less than 10%; grade 2 means that the average of the damage levels of plants is greater than […]; and grade 3 means that the average of the damage levels of plants is 100%. The plants having a growth status falling within grades 0 and 1 are classified as highly resistant plants; those having a growth status falling within grade 2 are classified as poorly resistant plants; and those having a growth status falling within grade 3 are classified as non-resistant plants.

[2] = system: Arabidopsis thaliana T1 plants; assay: saflufenacil tolerance of transgenic Arabidopsis thaliana T1 plants (spray, grade of pesticide damage)
Description: as §1

[3] = system: Arabidopsis thaliana T1 plants; assay: flumioxazin tolerance of transgenic Arabidopsis thaliana T1 plants (spray, grade of pesticide damage)
Description: as §1

[4] = system: Arabidopsis thaliana T1 plants; assay: sulfentrazone tolerance of transgenic Arabidopsis thaliana T1 plants (spray, grade of pesticide damage)
Description: as §1

B1: PPO4A: nucleotide sequence encoding microbial protoporphyrinogen oxidase PPO4 (SEQ ID NO:4), Arabidopsis thaliana/soybean common codon usage bias (nucleic acid)
DNA: ATGAAAACCCTGATTCTTTACAGCAGTCATGATGGACAGACCAAGAAAATCTCAGAGTTCCTTACGGCGTTGTTGAATGGCGAAGTTCTAGTTGATGCTCTACGTGAAGATTATGATATTGAAACATTTGACCAAGTTATAATCGGAGCTTCCATAAGGTATGGTCACTTTTCTAAGACTTTAGACAGATTTGTGGTGAGAAACAGGGTACATCTGGAACAAAAACGAGCAGTATTCTTCTCTGTTAACTTAACTGCCCGAAAAGAAGGTAAAGACAATCCTGAAACTAATGTCTATGTCAGAAAGTTTCTCCAGAGAACAAAATGGCAACCAAAACTTGCTGCCGTCTTCGCAGGTGCACTCTTGTACCCGAGATATAAGTGGTTTGATCGTGTGATGATTCGGTTTATCATGAAGATTACTGGGGGAGAGACGGATATAACAAAGGAGATTGAGTACACAGATTGGGAAAAGGTTAGGGAGTTCGCTCAGAGAATCAACCGCCTTGAGAAATGA
modifications: PPO4A Nucleotide Sequence
The grade of pesticide damage/plant: grade 0 ([1]; oxyfluorfen 180 g ai/ha (1×)): 24 plant | The grade of pesticide damage/plant: grade 1 ([1]; oxyfluorfen 180 g ai/ha (1×)): 0 plant | The grade of pesticide damage/plant: grade 2 ([1]; oxyfluorfen 180 g ai/ha (1×)): 0 plant | The grade of pesticide damage/plant: grade 3 ([1]; oxyfluorfen 180 g ai/ha (1×)): 0 plant | The grade of pesticide damage/plant: grade 0 ([1]; oxyfluorfen 720 g ai/ha (4×)): 22 plant | The grade of pesticide damage/plant: grade 1 ([1]; oxyfluorfen 720 g ai/ha (4×)): 2 plant | The grade of pesticide damage/plant: grade 2 ([1]; oxyfluorfen 720 g ai/ha (4×)): 0 plant | The grade of pesticide damage/plant: grade 3 ([1]; oxyfluorfen 720 g ai/ha (4×)): 0 plant | The grade of pesticide damage/plant: grade 0 ([2]; saflufenacil 25 g ai/ha (1×)): 24 plant | The grade of pesticide damage/plant: grade 1 ([2]; saflufenacil 25 g ai/ha (1×)): 0 plant | The grade of pesticide damage/plant: grade 2 ([2]; saflufenacil 25 g ai/ha (1×)): 0 plant | The grade of pesticide damage/plant: grade 3 ([2]; saflufenacil 25 g ai/ha (1×)): 0 plant | The grade of pesticide damage/plant: grade 0 ([2]; saflufenacil 100 g ai/ha (4×)): 4 plant | The grade of pesticide damage/plant: grade 1 ([2]; saflufenacil 100 g ai/ha (4×)): 20 plant | The grade of pesticide damage/plant: grade 2 ([2]; saflufenacil 100 g ai/ha (4×)): 0 plant | The grade of pesticide damage/plant: grade 3 ([2]; saflufenacil 100 g ai/ha (4×)): 0 plant | The grade of pesticide damage/plant: grade 0 ([3]; flumioxazin 60 g ai/ha (1×)): 24 plant | The grade of pesticide damage/plant: grade 1 ([3]; flumioxazin 60 g ai/ha (1×)): 0 plant | The grade of pesticide damage/plant: grade 2 ([3]; flumioxazin 60 g ai/ha (1×)): 0 plant | The grade of pesticide damage/plant: grade 3 ([3]; flumioxazin 60 g ai/ha (1×)): 0 plant | The grade of pesticide damage/plant: grade 0 ([3]; flumioxazin 240 g ai/ha (4×)): 22 plant | The grade of pesticide damage/plant: grade 1 ([3]; flumioxazin 240 g ai/ha (4×)): 2 plant | The grade of pesticide damage/plant: grade 2 ([3]; flumioxazin 240 g ai/ha (4×)): 0 plant | The grade of pesticide damage/plant: grade 3 ([3]; flumioxazin 240 g ai/ha (4×)): 0 plant | The grade of pesticide: grade 0 ([4]; sulfentrazone 450 g ai/ha (1×)): 24 | The grade of pesticide: grade 1 ([4]; sulfentrazone 450 g ai/ha (1×)): 0 | The grade of pesticide: grade 2 ([4]; sulfentrazone 450 g ai/ha (1×)): 0 | The grade of pesticide: grade 3 ([4]; sulfentrazone 450 g ai/ha (1×)): 0 | The grade of pesticide: grade 0 ([4]; sulfentrazone 900 g ai/ha (2×)): 18 | The grade of pesticide: grade 1 ([4]; sulfentrazone 900 g ai/ha (2×)): 6 | The grade of pesticide: grade 2 ([4]; sulfentrazone 900 g ai/ha (2×)): 0 | The grade of pesticide: grade 3 ([4]; sulfentrazone 900 g ai/ha (2×)): 0

B2: PPO5A: nucleotide sequence encoding microbial protoporphyrinogen oxidase PPO5 (SEQ ID NO:5), Arabidopsis thaliana/soybean common codon usage bias (nucleic acid)
DNA: ATGAAGACTCTTATCCTCTACTTCACAACAGACGGCCAAACGAAAAAGATTGCCGAGAGACTGGCTGATGTGATTACTCATGAAGTGGAGCTAATCTCCTTGAAAGATCAAGCTGTTGATTTTGCTCAGAAGATGGCTAATGTTGACCAAGTAGTCATTGGAGCGAGTATAAGGTATGGTCACTTCAGCCCTCTTGTTTATCAGTTTATTGAACAACATTATGCAATGTTGAATGAGAAGAAAACCGCTTTTTATGGAGTGAATCTCACAGCAAGGAAAGCAAATCGAAACACCCCAACCACAAATACTTACATCCGGAACTTCTTAGCAAAGGTGAAATGGCAACCTAACTATGTTGAGGTCATAGCTGGTGCCTTGTTTTACCCGCGTTACAGATTCATTGATAGAATGATGATTCGCTTCATCATGAAAGTAACGAAAGGAGAAACTGATGTTTCAAAAGAATATGAATACACAAACTGGCAGCAAGTTGAAGAGTTTGGGAAGAAGCTTTCTGATCAGTTAATATGA
modifications: PPO5A Nucleotide Sequence
The grade of pesticide damage/plant: grade 0 ([1]; oxyfluorfen 180 g ai/ha (1×)): 24 plant | The grade of pesticide damage/plant: grade 1 ([1]; oxyfluorfen 180 g ai/ha (1×)): 0 plant | The grade of pesticide damage/plant: grade 2 ([1]; oxyfluorfen 180 g ai/ha (1×)): 0 plant | The grade of pesticide damage/plant: grade 3 ([1]; oxyfluorfen 180 g ai/ha (1×)): 0 plant | The grade of pesticide damage/plant: grade 0 ([1]; oxyfluorfen 720 g ai/ha (4×)): 22 plant | The grade of pesticide damage/plant: grade 1 ([1]; oxyfluorfen 720 g ai/ha (4×)): 2 plant | The grade of pesticide damage/plant: grade 2 ([1]; oxyfluorfen 720 g ai/ha (4×)): 0 plant | The grade of pesticide damage/plant: grade 3 ([1]; oxyfluorfen 720 g ai/ha (4×)): 0 plant | The grade of pesticide damage/plant: grade 0 ([2]; saflufenacil 25 g ai/ha (1×)): 24 plant | The grade of pesticide damage/plant: grade 1 ([2]; saflufenacil 25 g ai/ha (1×)): 0 plant | The grade of pesticide damage/plant: grade 2 ([2]; saflufenacil 25 g ai/ha (1×)): 0 plant | The grade of pesticide damage/plant: grade 3 ([2]; saflufenacil 25 g ai/ha (1×)): 0 plant | The grade of pesticide damage/plant: grade 0 ([2]; saflufenacil 100 g ai/ha (4×)): 0 plant | The grade of pesticide damage/plant: grade 1 ([2]; saflufenacil 100 g ai/ha (4×)): 24 plant | The grade of pesticide damage/plant: grade 2 ([2]; saflufenacil 100 g ai/ha (4×)): 0 plant | The grade of pesticide damage/plant: grade 3 ([2]; saflufenacil 100 g ai/ha (4×)): 0 plant | The grade of pesticide damage/plant: grade 0 ([3]; flumioxazin 60 g ai/ha (1×)): 24 plant | The grade of pesticide damage/plant: grade 1 ([3]; flumioxazin 60 g ai/ha (1×)): 0 plant | The grade of pesticide damage/plant: grade 2 ([3]; flumioxazin 60 g ai/ha (1×)): 0 plant | The grade of pesticide damage/plant: grade 3 ([3]; flumioxazin 60 g ai/ha (1×)): 0 plant | The grade of pesticide damage/plant: grade 0 ([3]; flumioxazin 240 g ai/ha (4×)): 21 plant | The grade of pesticide damage/plant: grade 1 ([3]; flumioxazin 240 g ai/ha (4×)): 3 plant | The grade of pesticide damage/plant: grade 2 ([3]; flumioxazin 240 g ai/ha (4×)): 0 plant | The grade of pesticide damage/plant: grade 3 ([3]; flumioxazin 240 g ai/ha (4×)): 0 plant | The grade of pesticide: grade 0 ([4]; sulfentrazone 450 g ai/ha (1×)): 24 | The grade of pesticide: grade 1 ([4]; sulfentrazone 450 g ai/ha (1×)): 0 | The grade of pesticide: grade 2 ([4]; sulfentrazone 450 g ai/ha (1×)): 0 | The grade of pesticide: grade 3 ([4]; sulfentrazone 450 g ai/ha (1×)): 0 | The grade of pesticide: grade 0 ([4]; sulfentrazone 900 g ai/ha (2×)): 20 | The grade of pesticide: grade 1 ([4]; sulfentrazone 900 g ai/ha (2×)): 4 | The grade of pesticide: grade 2 ([4]; sulfentrazone 900 g ai/ha (2×)): 0 | The grade of pesticide: grade 3 ([4]; sulfentrazone 900 g ai/ha (2×)): 0
